Test results taken from patent US20210087243A1.

Biological target: T1, linear CGQKLVG-conjugated-BSA
T1 sequence (peptide, conjugated to BSA): CGQKLVG
Experiment: SPR direct binding (MASS-1), linear peptide-BSA immobilised, supernatant flowed

- binding response (RU): 7.7 RU
B1: 305-61 (7E9) (antibody, mouse IgG3, V domains shown)
VH: QVQLQQSGAELVRPGASVTLSCKASGYTFTDYEMHWVKQTPVHGLEWIGAIDPETGDTAYNQEFKGKATLTADKSSSTAYMELRSLTSEDSAVYYCTSPIYYDYDWFAYWGHGTLVTVSA
VL: DIVMSQSPSSLAVSAGEKVTMSCKSSQSLLNNRTRKNYLAWYQQKPGQSPKLLIYWASTRESGVPDRFTGSGSGTDFTLTISSVQAEDLAVYYCKQSYNLRTFGGGTKLEIKR
